Measurements as given in article PMC5300155, “Biochemical and biophysical investigations of the interaction between human glucokinase and pro-apoptotic BAD” (PLoS ONE, 2017).
Entries after “also recorded” stand apart in the source; their conditions may differ. Values belong to the molecule of their own block, whether it stands above or below them.

Legend:
GCK [1] = target: T1, GCK (Homo sapiens, UniProt P35557); assay: Fluorescence polarization, binding of fluorescent BH3 peptides to GCK; conditions: phosphorylation at position of Ser-118; trifluoroethanol 20–40%; S1 Fig: 34 μM f-pBH3, 40% trifluoroethanol
T1 construct: hexahistidine (N); made in house; host or cells: glucokinase auxotroph BM5340(DE3)
T1 sequence (P35557 1-465): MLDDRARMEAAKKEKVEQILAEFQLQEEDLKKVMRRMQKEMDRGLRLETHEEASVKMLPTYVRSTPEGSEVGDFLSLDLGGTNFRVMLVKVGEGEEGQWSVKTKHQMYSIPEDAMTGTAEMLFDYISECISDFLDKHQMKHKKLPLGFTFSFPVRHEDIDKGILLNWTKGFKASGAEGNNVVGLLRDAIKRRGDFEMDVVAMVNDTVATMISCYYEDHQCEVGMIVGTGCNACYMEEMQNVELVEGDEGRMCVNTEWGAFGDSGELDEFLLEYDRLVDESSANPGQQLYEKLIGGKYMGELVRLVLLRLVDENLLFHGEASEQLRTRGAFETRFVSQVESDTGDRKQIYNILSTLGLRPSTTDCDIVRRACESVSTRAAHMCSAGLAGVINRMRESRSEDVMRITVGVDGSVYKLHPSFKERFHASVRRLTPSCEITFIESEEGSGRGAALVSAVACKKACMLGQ
Description: (§1) Recombinant human pancreatic GCK containing an N-terminal hexahistidine tag was produced in the glucokinase auxotroph BM5340(DE3) and purified using a previously described procedure. TEV protease was expressed as a GST-fusion protein from a pGEX plasmid encoding the S219V variant, provided by David Waugh (Addgene plasmid 8827). Expression was induced with IPTG (1 mM) for 4 h at 30°C. Cell pellets were resuspended in Tris buffer (50 mM, pH 8.0) containing NaCl (100 mM), glycerol (10% v/v), benzamidine (1 mM) and dithiothreitol (10 mM) and lysed via French Press. Polyethyleneimine (0.1%) was added to the lysate and protein was purified on a glutathione-affinity column (GSTrap, GE Sciences). TEV protease was flash frozen and stored at -80°C for up to 1 month.
A fluorescence polarization assay developed by Zhang, et al. was utilized to measure interactions between BAD and its binding partners. Two 21-residue FITC-labeled peptides containing the BH3 domain of BAD were synthesized and purified to >95% by Peptide2.0 (f-BH3 = NLWAAQRYGRELRRMSDK(FITC)FVD; f-pBH3 = NLWAAQRYGRELRRM(p)SDK(FITC) FVD). Polarization was measured at room temperature with an excitation wavelength of 485 nm and an emission wavelength of 530 nm using a SpectraMax M5 microplate reader (Molecular Devices). […]

BAD-deficient islets = conditions: ref [8]; cited from earlier work
Excerpt: The mitochondrial complex fails to form in the absence of BAD, resulting in reduced glucose-driven oxygen consumption and impaired GSIS in β-cells. […] In hepatocytes, BAD deficiency results in insulin resis ...

Bcl-xL = target: T2, Bcl-xL (Homo sapiens, UniProt Q07817, DEL45-84); assay: Fluorescence polarization competition with f-BH3 for binding to Bcl-xL; conditions: for IC50: competitor 0–50 μM, room temperature, 15 min
T2 construct: made in house
T2 sequence (Q07817 with tags, fused parts or gaps DEL45-84): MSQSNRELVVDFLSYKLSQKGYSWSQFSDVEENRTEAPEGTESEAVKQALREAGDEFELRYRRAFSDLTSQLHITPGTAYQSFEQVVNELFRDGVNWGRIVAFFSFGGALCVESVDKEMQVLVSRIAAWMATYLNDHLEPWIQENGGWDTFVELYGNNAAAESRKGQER
Description: Exon 1 of human bcl-xl lacking the C-terminal residues 189–233 was obtained from Stanley Korsmeyer (Addgene plasmid 8755) and site-directed mutagenesis was performed to create the Δ45–84, Δ210–233 variant. Bcl-xL was expressed and purified using a modified procedure described previously. Briefly, Bcl-xL was purified by nickel affinity chromatography and dialyzed against potassium phosphate buffer (20 mM, pH 7.4) containing NaCl (50 mM), EDTA (1 mM), and DTT (10 mM). Protein was applied to a Superdex 200 10/30 HR size-exclusion column, at a flow rate of 0.02 mL/min, to remove aggregate and oligomers prior to binding assays.
A fluorescence polarization assay developed by Zhang, et al. was utilized to measure interactions between BAD and its binding partners. Two 21-residue FITC-labeled peptides containing the BH3 domain of BAD were synthesized and purified to >95% by Peptide2.0 (f-BH3 = NLWAAQRYGRELRRMSDK(FITC)FVD; f-pBH3 = NLWAAQRYGRELRRM(p)SDK(FITC) FVD). Polarization was measured at room temperature with an excitation wavelength of 485 nm and an emission wavelength of 530 nm using a SpectraMax M5 microplate reader (Molecular Devices). Experiments to measure binding constants of the fluorescent peptides to Bcl-xL or GCK were performed in black 96-well plates. Each well contained 15 nM peptide, 60 μL BAD buffer (0.1 M Tris, 0.1 M KCl, 0.5 M arginine, 2.5 mM CHAPS, 5 mM TCEP, 10% glycerol, pH 8.5) and variable concentrations of Bcl-xL (0–2.25 μM) or GCK (0–400 μM) in assay buffer (20 mM phosphate buffer, pH 7.4, 1 mM EDTA, 50 mM NaCl, 10 mM DTT) in a final volume of 120 μL. High GCK concentrations were chosen in an effort to detect a signal indicating a binding event. Assays containing GCK also contained 250 mM glucose. […] Plates were incubated at room temperature in the dark for 15 min prior to polarization measurements.

[2] = Circular dichroism spectroscopy (secondary structure); format: physicochemical; conditions: relative to (unmodified) BAD-GST, 25°C, pH 7.8
Description: Proteins were dialyzed overnight into potassium phosphate buffer (50 mM, pH 7.8) containing KCl (50 mM), glycerol (5% v/v), and TCEP (4 mM). CD spectra were recorded on an AVIV 202 CD spectrometer at 25°C with protein concentrations ranging from 3–15 μM. Spectra were recorded from 200–260 nm in 10 mm pathlength cuvettes using a 1 nm step resolution and 3 s integration time. Three scans were recorded per sample, averaged, and baseline subtracted with appropriate buffer controls. CD signals were converted to molar ellipticity and deconvoluted using CDPro Software.

human pancreatic GCK [3] = target: T3, human pancreatic GCK (Homo sapiens, UniProt P35557); assay: GCK activity, G6PDH-linked assay (lab's routine assay, 25°C); format: biochemical
T3 construct: hexahistidine (N); made in house; host or cells: glucokinase auxotroph BM5340(DE3)
T3 sequence (P35557 1-465): T1 sequence (P35557 1-465)
Description: as §1
GCK activity was assayed using a glucose 6-phosphate dehydrogenase (G6PDH)-linked assay at 25°C. 50 nM GCK was assayed in buffer containing HEPES (100 mM, pH 7.4), KCl (50 mM), NADP^+ (0.5 mM), DTT (10 mM), MgCl2 (7 mM), G6PDH (1.5 U) and glucose (0–100 mM) in a total volume of […]. Addition of ATP (6 mM) initiated the reaction. Production of NADPH was measured at 340 nm. To determine the effect of BAD on GCK activity, 5 μL of BAD or buffer control was added to the reaction in a final volume of 100 μL. K0.5 values were determined by fitting to the Hill equation. The effect of BAD on GCK activity is reported as the percent rate increase at individual glucose concentrations, calculated as the average of a minimum of four rates of BAD-containing assays divided by the average of rates of BAD buffer-containing assays. The results represent the average of at least three independent preparations of pure BAD.

GCK [4] = conditions: rabbit reticulocyte lysates; ref [8]; cited from earlier work
Excerpt: Several lines of evidence support a direct interaction between GCK and BAD. […] Kinetic assays re ... || The first indication of a putative interaction between full-length BAD and GCK came from the observation that both proteins co-localize with one another in a macromolecular complex purified from mouse hepatocyte mitochondrial extracts. […] In contrast to these experiments, our study utilizes active, highly purified homogeneous preparations of both proteins. The biochemical and biophysical e ...

human pancreatic GCK [5] = target: T3, human pancreatic GCK; assay: Analytical ultracentrifugation sedimentation velocity of equimolar mixtures with GCK; format: binding; conditions: equimolar mixture, BAD buffer pH 8.5, 20°C, 50,000 x g
Description: (§2) Sedimentation velocity experiments were conducted with an Optima XLI Ultracentrifuge (Beckman Coulter) using a four-hole rotor with three 420 μL samples in standard double-sector Epon centerpieces equipped with sapphire windows. Absorbance and interference data were collected simultaneously. Size-exclusion purified proteins were concentrated to OD280 nm = 0.3–1.0 prior to centrifugation. For complex formation, proteins were mixed in a 1:1 molar ratio in BAD buffer (0.1 M Tris, 0.1 M KCl, 0.5 M arginine, 2.5 mM CHAPS, 5 mM TCEP, 10% glycerol, pH 8.5) and incubated on ice 30 min prior to the start of the experiment. Experiments were carried out at 20°C and 50,000 x g. Data were analyzed with Ultrascan III software using a minimum of 70 scans per sample for analysis. Van Holde-Weischet analysis was performed to obtain S20,W values.

[6] = Analytical ultracentrifugation sedimentation velocity (oligomerization, shape); format: physicochemical; conditions: sedimentation velocity, 20°C, 50,000 x g; unity = compact sphere
Description: as §2

[7] = Isoelectric focusing of phosphorylated BAD-GST; format: physicochemical; conditions: IEF, IPG strips pH 4–7; four distinct populations
Description: Recombinant BAD-GST was phosphorylated with PKAc after refolding. 1 unit PKAc was added to 10 units BAD-GST and the reaction was dialyzed against BAD refolding buffer (0.1 M Tris, 0.1 M KCl, 0.2 M arginine, 2.5 mM CHAPS, 5 mM DTT, 10% glycerol, pH 8.5) containing ATP (3 mM) and MgCl2 (20 mM). Reactions were carried out at 4°C overnight. PKAc and excess ATP were removed from BAD-GST via glutathione-affinity chromatography (GSTrap, GE Healthcare). The extent of phosphorylation was established via mass spectrometry and 2D-IEF-SDS-PAGE using ReadyStrip IPG strips (Bio-Rad) with a pH range of 4–7. pET28badgst was subjected to site-directed mutagenesis to remove sites of phosphorylation (Ser-to-Ala) or to incorporate phosphorylation mimics (Ser-to-Asp) using the QuikChange™ Site-directed mutagenesis kit (Stratagene).

- Binding to GCK, phosphorylated fluorescent peptide / trifluoroethanol (GCK [1]): does not affect f-pBH3 binding to GCK
Molecule: NLWAAQRYGRELRRM(p)SDK(FITC) FVD [f-pBH3, 21-residue FITC-labeled phosphorylated peptide containing the BH3 domain of BAD]

- IC50 (Bcl-xL; 200 nM f-BH3, 50 nM Bcl-xL): 440 nM
- Increase in GCK activity, GST tag removed (human pancreatic GCK [3]; 0.5, 0.78 and 1.0 mM glucose, data not shown): 7–12%
B1: BAD: BAD following cleavage and removal of the GST tag (protein)
chain: MFQIPEFEPSEQEDSSSAERGLGPSPAGDGPSGSGKHHRQAPGLLWDASHQQEQPTSSSHHGGAGAVEIRSRHSSYPAGTEDDEGMGEEPSPFRGRSRSAPPNLWAAQRYGRELRRMSDEFVDSFKKGLPRPKSAGTATQMRQSSSWTRVFQSWWDRNLGRGSSAPSQ
modifications: left off: His6, N-terminal, state not stated | GST, C-terminal, kept
- Effect on impaired insulin response or GSIS of BAD-deficient islets (BAD-deficient islets): restores GSIS
- CD comparison (in words) [2]: nearly identical
- Coimmunoprecipitation with GCK (GCK [4]): co-immunoprecipitates with GCK; also recorded: can coimmunoprecipitate with GCK

- IC50 (Bcl-xL; 200 nM f-BH3, 50 nM Bcl-xL): ≥ 1600 nM
- Increase in GCK activity over unmodified BAD-GST (human pancreatic GCK [3]; 1.0 mM glucose, BAD-GST phosphorylated by PKA): 5%
- Hill coefficient H of GCK in presence of pBAD-GST (human pancreatic GCK [3]; Fig 6A, GCK alone: H = 1.7): 1.6
- Difference in effect on GCK activity, phosphorylated versus unmodified BAD-GST (human pancreatic GCK [3]; all glucose concentrations other than 1.0 mM): no statistical difference
- Maximum increase in GCK activity (human pancreatic GCK [3]; glucose below K0.5, phosphorylated BAD > 2 μM): 15%
B2: phosphorylated BAD-GST: BAD-GST phosphorylated in vitro with PKAc at S75, S99, S118 (protein)
chain: B1 chain
modifications: phosphoserine at 75, 99 and 118 (all three sites found by mass spectrometry; four populations by isoelectric focusing); left off: His6, N-terminal, state not stated | GST, C-terminal, kept
notes: BAD-GST phosphorylated in vitro with PKAc at S75, S99, S118
- Complex with GCK by analytical ultracentrifugation (human pancreatic GCK [5]): no evidence of a higher molecular weight complex
- Frictional ratio f/f0 [6]: 3.1
- Competition with f-BH3 binding to Bcl-xL (in words) (Bcl-xL; 200 nM f-BH3, 50 nM Bcl-xL, GST up to 10 μM, BAD-GST phosphorylated by PKA): abrogrates the protein’s ability to compete with f-BH3
- Ability to interact with Bcl-xL (in words) (Bcl-xL; ITC and fluorescence polarization assays): significantly impaired in their ability to interact with Bcl-xL
- CD comparison (in words) [2]: a higher degree of α-helical content compared to unmodified BAD-GST
- K0.5 (glucose) of GCK in presence of pBAD-GST (human pancreatic GCK [3]; Fig 6A, GCK alone: K0.5 = 8.6 mM, Hill equation fit): 8.8 mM
- kcat of GCK in presence of pBAD-GST (human pancreatic GCK [3]; Fig 6A, GCK alone: kcat = 38.1 s^-1): 38.4 s^-1
- pI values [7]: 4–7
